Paper PMC11228984

Assay: expression and purification from insect cells
Conditions: glycan lost; control: unmutated TREK2 construct

B1: TREK2: N144Q (protein)
parent chain: MFFLYTDFFLSLVAVPAAAPVCQPKSATNGQPPAPAPTPTPRLSISSRATVVARMEGTSQGGLQTVMKWKTVVAIFVVVVVYLVTGGLVFRALEQPFESSQKNTIALEKAEFLRDHVCVSPQELETLIQHALDADNAGVSPIGNSSNNSSHWDLGSAFFFAGTVITTIGYGNIAPSTEGGKIFCILYAIFGIPLFGFLLAGIGDQLGTIFGKSIARVEKVFRKKQVSQTKIRVISTILFILAGCIVFVTIPAVIFKYIEGWTALESIYFVVVTLTTVGFGDFVAGGNAGINYREWYKPLVWFWILVGLAYFAAVLSMIGDWLRVLSKKTKEEVGEIKAHAAEWKANVTAEFRETRRRLSVEIHDKLQRAATIRSMERRRLGLDQRAHSLDMLSPEKRSVFAALDTGRFKASSQESINNRPNNLRLKGPEQLNKHGQGASEDNIINKFGSTSRLTKRKNKDLKKTLPEDVQKIYKTFRNYSLDEEKKEEETEKMCNSDNSSTAMLTDCIQQHAELENGMIPTDTKDREPENNSLLEDRN
In the case of B1, the expression_or_secretion is reported as “no change”.
